Data as given in the supplement of paper PMC9170038.

Test system: K4 kissing-loop RNA reporter
Experiment: apparent KD of K4 kissing-loop reporter; higher = weaker reporter binding
Conditions: Eterna round: R107
Protocol: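 RNA-MaP round R107: designed RNA switches with theophylline, tryptophan, arginine or FMN aptamers are transcribed on-chip within common flanks. They are titrated with a labelled K4 kissing-loop RNA reporter in RNA-MaP buffer (100 mM Tris pH 7.5, 80 mM KCl, 4 mM MgCl2), without ligand or with the indicated ligand. Median apparent KD per design.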

[1] = input ligand: theophylline 20 uM
[2] = input ligand: tryptophan 2.4 mM
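Note: bound reporter read as fluorescence of individual clusters on recovered sequencing chips by microscopy, with normalized cluster intensities fitted with a binding model.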

Sequence	apparent KD of K4 kissing-loop reporter (input ligand: FMN 200 uM) [nM]	apparent KD of K4 kissing-loop reporter (input ligand: arginine 13.2 mM) [nM]	apparent KD of K4 kissing-loop reporter (input ligand: none) [nM]	apparent KD of K4 kissing-loop reporter [1] [nM]	apparent KD of K4 kissing-loop reporter [2] [nM]
CUAUGGAAACAUAGUGAUCGGGAAACCGAUACCAGUAUGGAAACAUACCCUUGGCAGCGGAAUGAUCUAACGGAGUGAUGUUCCG [Theophylline A K4 23]	492	456	574	389	496
UAGGGUUGAAAAGGAUAUUUACCCUAUGUCAACGAGUGAUGUUCGUGGACAUUAGGCACAACUCGUAAAGAAGGUUUCCAGACUC [theeternabot_sameState_KL_FMN_B_39]	93	87.5	95	97.5	95.7
GGAGUUACCUGGGAUACCAGUCGGAGUCCUAGAGCUCGGAGUGAUGUUCUGGGAUGUUUCGGCCCUUGGCAGCUCUGGGACUCCC [#2 Exclusion - Theophylline B Attempt #11 (HarryS)]	615	470	949	921	630
AAUGUGCAGGGAAGGAGCGUAGUCCAGUGCUGUUGGAGUUAGAUACCAGUGAUGUUGGUUAUACAGGUAGGUCGCCCUAAAGCGC [whbob_Ex_Arginine_B_2th161]	139	154	140	161	130
AAACGUUGGUGCGAUACCAGCUGAUCGGAAACGAUCUUGCUGGAGUGAUGUUCCAAGUAAAGCCCUUGGCAGCGCACCGACGAAA [MAT - Same State Theophlline B - Mod of Eli - D22]	92.5	58.4	86.5	145	69.3
UAUAUAGUGACGGCCGCCACUAUAUUAAUGUUUUUGUUAGAGUGAUGUUUUGUUUAAUAUUUUUAUAGGACCGGGUUAUAUGUUA [zsqqxmullin]	569	338	641	557	580
GACGGGUUCCUGCUCAAUCCGUCGCAUGAUCGAGGACCGGUACGGCCGCCACUCGAGGCCAUGCCGUACGAGUGAUGUUCGUGCG [Xeon]	438	367	403	380	200
UAGCGUAUCAGAGGAUAUGAUAUGUUAUGCAGUGAUGUUGCAUGAUGUAGCAGAAUUCUGAGUGUAUCAGAAGGCUGAUAUGCUA [FMN B Ex t3]	171	87.8	90.5	78.9	88.6
CUGAGCCUGACGUAAGUCAGGCUCUGCGAGCGAGGACCGGUACGGCCGCCACUCGGUGCAGUGAUGUUGCAUGGCCGCAAGGCCG [#2 Exclusion - Tryptophan A Attempt #19 (HarryS)]	293	246	234	254	345
UGUAAGCGCGUAGAUACCAGCAGACGAGUGAUGUUCAAGAGAUUAAGGAAAAGAAAGUAAUGCCCUUGGCAGCUAAUCAUAAGCG [whbob_Ex_Theo_B_sa93]	384	312	446	331	363
AGAUGACACGGAGGAUAUCCUAAUAUGGGUGAUGUUAGCGAUGUUGAAGGUGUAGUGAUGUUAUGCGGAGAAGGCCGUGUUGUUU [BDazzled - #22 - Exc. FMN B]	103	85.6	155	102	96.1
UAAGAGGACCACUGCGAGAGUCCUCGAAUACGAGGACCGGUACGGCCGCCACUCGAUAAUUUGCAGUGAUGUUGCAAGUAAGAAU [BrourdMod 6 - Jieux - Same State Tryptophan A]	64.5	114	82.4	104	48.6
AAAGCAUUGAGAAGGAGCGUGACGUGGAGUGAUGUUCCAUUGUAGUAAUAAUUACUACUAUCACAGGUAGGUCGCUCAUUGCUAA [JR_Nu_SSArginiB_Sub024]	183	159	181	161	180
AAGUGAUGUUGUAGUGAUGUUGUGAUGUUGCAGGAUAUAUAGUGAUGUAGAAGGGUAAGUACUGAUGUUGUUUGUGAGUGAUGUU [zrrszrmullin]	99.2	44.9	78.6	66.9	76.2
GGCACGGUGACGCGGCUGCCGUGCGCUUGGGAGGAUAUGUUUCGUGACAGAAGGCCCAGUGAUGUUGGGUCUGUUCAAAAGGACU [Edmatianri]	339	104	125	121	104
UCUCGGGCCAGUGAUGUUGGCGGCUAGUGGCGAGGACCGGUACGGCCGCCACUCGGCGCAGCAGCGGAGUGAUGUUUCGUGAGUA [Same State Tryptophan A GF 17]	363	301	377	441	198
GAUCUGAACGAAAGUUCGGAUCAUUCCGAUACCAGUAUGGAUUCAUACCCUUGGCAGCGGGAUUCUGCUAUGGAGUGAUGUUCCA [Theophylline A K4 15]	422	332	475	400	362
AAGUGAUGUUGUAGUGAUGUUGUGAUGUUGCAGGAUAUAUAGUGAUGUAGAAGGGUAUGUGCAGUGUUGUUAUUUGAGUGUUGAU [zffdmullin]	89.7	41.4	78.7	73.8	66.9
AAUUUACAAUAAUCAUUUAAAGGAUCAGAAGGAGCGUGAAAUAACACAGGUAGGUCGCUGAGCGAGUGAUGUUCGCUAUAUACAA [JR_ExcArginiA_Sub001]	52.3	68.7	68.8	85.9	50.1
GCCGUAGAUGGAAGGAGCGUGGUGGACUCGUGAAGUGAUGUUUCAAGUCGAUAUGCCCAACCACAGGUAGGUCGCCAUCUACGGC	206	161	169	198	174
UUUGUAUAGGGAAGGAGCGUGAAUGAGAAAGAAUAUAGUGAUGUUAUAUAGAAGAAAGAAUCACAGGUAGGUCGCCCGGAGGAGG [SSArgB.G]	484	363	371	482	337
GAAACGUUGCGGACUAUCGCAUAAAGUCACCGAGGACCGGUACGGCCGCCACUCGCCAGUGAUGUUGGCGUGUUUGCGCGCUGUG [Titebebi]	104	94	95.4	101	178

Sequence	apparent KD of K4 kissing-loop reporter (input ligand: FMN 200 uM) [nM]	apparent KD of K4 kissing-loop reporter (input ligand: arginine 13.2 mM) [nM]	apparent KD of K4 kissing-loop reporter (input ligand: none) [nM]	apparent KD of K4 kissing-loop reporter [1] [nM]	apparent KD of K4 kissing-loop reporter [2] [nM]
AGAGUGAUGUUUUUUUGAAGUGAGUAAAGUCGAGGACCGGUACGGCCGCCACUCGAGUGAUGUUAGUGAUGUUGAUGUAGUGAUG [xxzmullin]	110	69	90.9	105	75.4
AGAGUACGAAAGUACUCCUCUACACACUGACGAGGACCGGUACGGCCGCCACUCGAGUUGAGUGAUGUUCGACAGUGUGUAGAGA [Omei KL Tryp A SS C v1]	120	22.3	25.6	163	783
CCAUUCUUUUACGAUACCAGUCUAAUAUAUUGAAUCAAAACCCUCGCCGAGUGAUGUUCGGACCCUUGGCAGCGUCUGCGAGAGG [xwxxtkmullin]	629	542	602	549	498
AGACUACCACACUGUCAAUAGACAGUGAACUCGGAUAUGCUGAUAAGCAGAAGGAGUGAUGUUCCCAGGUAGUCAAUAAAAUAAU [FmnAX 13 C32+C66]	135	111	144	233	142
GGUGUGCCAGUGAUGUUGGCAUAAACUGAAGGAGCGCGUGAAAACGCAGGUAGGUCGCAGAACCUUGCCAACUAUUUUAUUCACC [Ex Arginine A K4 25]	181	174	176	236	168
UCCUGCAAUCUGCCACGAAAGUGGGUUGAUACCAGAGUCGAAAGACUCCCUUGGCAGCGAGUGAUGUUCGUUGCAGGUGAAUAAA [MatMod 9 - Jieux - Exclusion - Theophylline A]	118	264	444	309	323
AAAUAGGUGUGCGAUACCAGCCGGAGUGAUGUUCCGUGUUGUACUGGCUGCACCUACGCCGGCCCUUGGCAGCGUGCUCCAUUUA [Enonin]	177	140	169	263	148
AGUGAUAUAUGAGGAUAUGGGUUUGUUAAUGAGUUAUUUUUAGUGUUGUUUGGUUAGUGAUGUUAUUUAGAAGGCGUGAGUGAUG [rrwswwmjmullin]	93.7	89.4	81.9	111	76.5
GUGCGGCUAGUGAUGUUGGUUGUGUGGGAAGGAGCGCAGAUUCAUGCAGGUAGGUCGCCCACACCUCUGAAAGGAGGCUAAUUCA [KL-SSArg-A16]	453	300	315	368	331
AUUUAUUCGAGUGAUGUUCGUGAUUUUUCAGAGGAUAUGCGUAAUAGCAGAAGGCUGUAUUUAUAUAUAUUUUGAUUUUUUUAAA [JR_Nu3_ExcFMNA_Sub024]	82.2	122	64.6	99.4	61.8
AGGCAAUAUGCGGCCGCCACUUUCAGUGAUGUUGAGACGCGGAAUGUUGUAUAAUAUCGCCACGAAAGGACCGGGCAAGGGAAAG [theeternabot_exclusion_KL_Trp_B_5]	691	434	542	423	355
CAUAGACAAGUGAUGUUUGUCAUAACCGAAGGAGCGUCGUUGAAGACAGGUAGGUCGCGGAUUAAUUUAGAUUAUAUUCUUUUUA [JR_SSArginiA_Sub020]	595	462	570	567	542
UCGAAAUGCGUCUCCUAGUUACUCCGGGAAGGAGCGUGGAUAACCGCAGGUAGGUCGCCCGGAAGCCGGACCAGUGAUGUUGGUC [Exclusion Arginine A Gf 29]	216	179	221	186	182
UGUAAGCGCGUAGAUACCAGCAAACGAGUGAUGUUCAAAAGAUUAAGGAAAAGAAAGUAAUGCCCUUGGCAGCUAAUCAUAAGCG [whbob_Ex_Theo_B_sa91]	304	316	449	397	247
GGUCCGCGGUCGGCCGCCACUGAACAAGACCAGUGAUGUUGGAUCUUCCAGUGCGUUGGCUUUAACAGGACCGGGACCGUGGAGC [Titia]	139	132	145	140	164
AGGGUAAGGCGUUAACAUGACACCUGGGAAGGAGCGCGGUACACCGCAGGUAGGUCGCCCAGUGAUGUUGGGCGUAAGUAUGAGU [KL-XArg-A22]	137	179	185	180	137
AUUAAUUUCAGAGGAUAUCGUUAUUUUUUAUAUUUUAUUCAUUUAUGCAGUGAUGUUGCUAUUAUUCGAGAAGGCUGAUUUAUAA [JR_ExcFMNB_Sub004]	86.4	105	44.9	100	50.9
GCAGUGAUGUUGCGAAUCGGCCAUGAUGCAGAGGAUAUCGUGCCUUCGAGAAGGUUGUAUAGAGGAUACGAUACUAUUAAUGACG [Same State FMN A GF 6]	395	356	714	413	329
UCGAGUUGACGAAAAGUCAACUCGUGAGAUACCAGUGACGAAAGUCACCCUUGGCAGCUCACUGCCAGUGAUGUUGGUGUAUAGA [#06 K4 Theophylline A Same State]	856	840	1030	996	955
AGGCCACACAGCGAGUGAUGUUUGCGUUAUCGAGGACCGGUACGGCCGCCACUCGGCCUUUAGCGCCUUACCAAUUAGGUGUUGC [theeternabot_sameState_KL_Trp_A_46]	453	430	731	556	647
GCUCAGGAGUGAUGUUCCUAGUGAUGUUAACGAGGACCGGUACGGCCGCCACUCGAUACGGCCGGACCGUAGGAUAAACUAGAGC [Same State - Tryptophan A (Freestyle 10)]	292	238	261	351	340
